The target in series [1] is HER2-GST fusion (human) (UniProt P04626). Briefly: not stated (cited). To be noted: 2'-fluoro pyrimidines (general statement); Cell assays mostly in DPBS at 37 C (4 C for surface binding), washes DPBS, 0.5 M NaCl +/- 0.2 N acetic acid or trypsin; Qdot flow after 10% FBS/DPBS block …; cited from earlier work.
Series [2] has as its target HER2 (rat) (rat) (UniProt P06494). Briefly: not stated (cited). To be noted: 2'-fluoro pyrimidines; Cell assays mostly in DPBS at 37 C (4 C for surface binding), washes DPBS, 0.5 M NaCl +/- 0.2 N acetic acid or trypsin; Qdot flow after 10% FBS/DPBS block …; cited from earlier work.
Series [3] addresses PSMA (prostate specific membrane antigen) (human) (UniProt Q04609). Briefly: not stated (cited). The settings on record: 2'-fluoro pyrimidines; Cell assays mostly in DPBS at 37 C (4 C for surface binding), washes DPBS, 0.5 M NaCl +/- 0.2 N acetic acid or trypsin; Qdot flow after 10% FBS/DPBS block …; cited from earlier work.
For series [4], the target named is PSMA on PC3(PSMA+) cells (human?) (UniProt Q04609). The experiment in a line: NIR cell uptake (QUSIM). To be noted: 10 nM, 15 min, 37 C, trypsin wash, 2'-fluoro pyrimidines, Cell assays mostly in DPBS at 37 C (4 C for surface binding), washes DPBS, 0.5 M NaCl +/- 0.2 N acetic acid or trypsin, Qdot flow after 10% FBS/DPBS block ….
The target in series [5] is TrkB (mouse) (mouse) (UniProt P15209). The experiment in a line: not stated (cited). The settings on record: 2'-fluoro pyrimidines; Cell assays mostly in DPBS at 37 C (4 C for surface binding), washes DPBS, 0.5 M NaCl +/- 0.2 N acetic acid or trypsin; Qdot flow after 10% FBS/DPBS block …; cited from earlier work.

In article PMC3722562 one finds Kd and binding signal (% of input internalized) data, which are given here for five sequences.

PSMA on PC3(PSMA+) cells (human?), sequence (Q04609 whole entry): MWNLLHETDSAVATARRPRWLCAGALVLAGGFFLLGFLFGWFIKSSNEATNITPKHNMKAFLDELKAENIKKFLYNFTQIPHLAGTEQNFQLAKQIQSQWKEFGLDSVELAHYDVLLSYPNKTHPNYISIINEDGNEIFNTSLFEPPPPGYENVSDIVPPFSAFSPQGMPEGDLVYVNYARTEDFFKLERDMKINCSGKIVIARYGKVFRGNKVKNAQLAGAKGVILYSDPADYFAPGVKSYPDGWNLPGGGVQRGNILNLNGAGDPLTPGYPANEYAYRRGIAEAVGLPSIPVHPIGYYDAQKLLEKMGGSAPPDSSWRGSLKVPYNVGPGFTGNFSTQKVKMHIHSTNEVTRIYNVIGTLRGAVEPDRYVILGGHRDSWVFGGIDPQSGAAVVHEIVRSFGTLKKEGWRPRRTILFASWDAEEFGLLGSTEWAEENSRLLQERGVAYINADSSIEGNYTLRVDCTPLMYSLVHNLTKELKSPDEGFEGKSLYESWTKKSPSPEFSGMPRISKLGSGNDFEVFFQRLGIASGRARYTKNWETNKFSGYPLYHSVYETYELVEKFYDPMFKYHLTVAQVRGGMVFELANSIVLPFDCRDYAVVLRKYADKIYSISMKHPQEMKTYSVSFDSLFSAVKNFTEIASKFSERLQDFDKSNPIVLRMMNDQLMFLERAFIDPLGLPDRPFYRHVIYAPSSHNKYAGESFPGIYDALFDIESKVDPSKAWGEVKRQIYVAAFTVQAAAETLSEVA
PSMA (prostate specific membrane antigen) (human), sequence (Q04609 whole entry): as above
HER2 (rat) (rat), sequence (P06494 whole entry): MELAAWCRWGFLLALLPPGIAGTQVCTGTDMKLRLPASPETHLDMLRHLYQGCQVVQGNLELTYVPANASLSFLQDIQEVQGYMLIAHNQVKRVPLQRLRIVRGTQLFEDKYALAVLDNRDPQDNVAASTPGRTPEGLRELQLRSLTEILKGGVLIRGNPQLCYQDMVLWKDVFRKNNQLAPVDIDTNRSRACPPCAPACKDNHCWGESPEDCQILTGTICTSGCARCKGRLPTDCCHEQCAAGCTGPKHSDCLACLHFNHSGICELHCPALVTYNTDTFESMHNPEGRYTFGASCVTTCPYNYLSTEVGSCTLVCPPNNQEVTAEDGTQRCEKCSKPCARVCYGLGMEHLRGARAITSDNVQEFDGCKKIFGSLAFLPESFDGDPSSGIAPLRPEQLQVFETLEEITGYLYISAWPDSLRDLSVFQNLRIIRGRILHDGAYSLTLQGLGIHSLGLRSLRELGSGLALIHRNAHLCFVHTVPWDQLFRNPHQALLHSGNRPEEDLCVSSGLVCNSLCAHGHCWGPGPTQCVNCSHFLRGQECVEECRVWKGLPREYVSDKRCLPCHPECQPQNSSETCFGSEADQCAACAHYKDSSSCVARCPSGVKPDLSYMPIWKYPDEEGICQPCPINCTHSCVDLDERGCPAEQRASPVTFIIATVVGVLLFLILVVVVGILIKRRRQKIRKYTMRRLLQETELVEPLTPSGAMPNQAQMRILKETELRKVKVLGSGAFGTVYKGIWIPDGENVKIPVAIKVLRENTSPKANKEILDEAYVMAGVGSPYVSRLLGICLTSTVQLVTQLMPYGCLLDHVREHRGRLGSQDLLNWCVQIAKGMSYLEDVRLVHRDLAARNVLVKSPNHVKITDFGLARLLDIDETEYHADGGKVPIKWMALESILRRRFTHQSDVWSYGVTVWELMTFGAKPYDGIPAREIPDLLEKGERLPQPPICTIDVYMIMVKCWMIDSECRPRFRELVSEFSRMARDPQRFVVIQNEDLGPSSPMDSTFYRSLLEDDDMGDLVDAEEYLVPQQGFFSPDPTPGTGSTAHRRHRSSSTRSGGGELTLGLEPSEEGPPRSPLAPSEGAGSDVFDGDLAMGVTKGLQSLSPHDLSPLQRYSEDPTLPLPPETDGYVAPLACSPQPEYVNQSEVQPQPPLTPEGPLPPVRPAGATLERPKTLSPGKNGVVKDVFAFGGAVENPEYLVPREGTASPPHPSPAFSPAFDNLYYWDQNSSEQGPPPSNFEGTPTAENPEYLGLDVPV
TrkB (mouse) (mouse), sequence (P15209 whole entry): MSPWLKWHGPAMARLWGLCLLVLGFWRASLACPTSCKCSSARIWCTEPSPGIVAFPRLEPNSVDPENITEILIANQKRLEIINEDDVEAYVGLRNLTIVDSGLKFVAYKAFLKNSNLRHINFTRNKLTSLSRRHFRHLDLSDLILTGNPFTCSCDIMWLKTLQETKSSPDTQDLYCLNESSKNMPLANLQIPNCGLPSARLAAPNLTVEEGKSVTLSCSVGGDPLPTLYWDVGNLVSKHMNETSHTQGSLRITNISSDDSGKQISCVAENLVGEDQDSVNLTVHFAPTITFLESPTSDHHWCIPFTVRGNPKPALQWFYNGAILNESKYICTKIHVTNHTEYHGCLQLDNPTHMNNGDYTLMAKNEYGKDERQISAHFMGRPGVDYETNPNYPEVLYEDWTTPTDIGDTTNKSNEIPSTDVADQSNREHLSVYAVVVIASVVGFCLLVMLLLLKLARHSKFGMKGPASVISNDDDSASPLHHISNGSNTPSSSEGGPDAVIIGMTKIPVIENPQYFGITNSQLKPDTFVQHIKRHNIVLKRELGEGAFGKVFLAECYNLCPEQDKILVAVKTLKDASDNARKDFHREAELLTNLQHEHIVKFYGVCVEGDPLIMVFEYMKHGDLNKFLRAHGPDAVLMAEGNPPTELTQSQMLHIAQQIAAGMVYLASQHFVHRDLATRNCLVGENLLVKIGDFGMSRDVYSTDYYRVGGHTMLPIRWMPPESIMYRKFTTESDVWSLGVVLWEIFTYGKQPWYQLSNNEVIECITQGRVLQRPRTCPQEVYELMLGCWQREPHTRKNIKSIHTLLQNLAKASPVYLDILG

A word on the Kd: it is the equilibrium constant for the complex coming apart. For the sequence “AGCCGCGAGGGGAGGGAUAGGGUAGGGCGCGGCU [hHER2-apt]”, in series [1], the Kd is 3.5 nM. For the sequence “GGGAGGACGAUGCGGUCCUGUCGUCUGUUCGUCCCCAGACGACUCGCCCGA [E1]”, the Kd in series [2] was 60.8 nM. On to “GGGACCGAAAAAGACCUGACUUCUAUACUAAGUCUACGUUCCC [A9g]”, for which the Kd in series [3] was 5 nM. This sequence gave a binding signal (% of input internalized) in series [4] (<1% in PSMA- cells) of 13. “GGGACCGAAAAAGACCUGGCUUCUAUACUAAGUCUACGUUCCC [A9g.6]” registered a binding signal (% of input internalized) in series [4] below 0.5.

As to “GGGAGGACGAUGCGGUCGUAUUAUCCGCUGCACGCCAGACGACUCGCCCGA [C4-3]”, the Kd in series [5] is 2 nM.
